{
  "source": "patent US20080260713",
  "biological_target": "T1, human regulatory myosin light chain, his-tagged",
  "T1 chain": "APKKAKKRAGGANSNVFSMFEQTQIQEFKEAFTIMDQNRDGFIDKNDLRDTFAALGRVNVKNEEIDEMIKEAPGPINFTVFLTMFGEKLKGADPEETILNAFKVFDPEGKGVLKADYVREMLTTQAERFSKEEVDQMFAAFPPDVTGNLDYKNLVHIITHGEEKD",
  "data": [
    {"protein": "recombinant human neukinase, His-tagged (protein) MSGTSKESLGHGGLPGLGKTCLTTMDTKLNMLNEKVDQLLHFQEDVTEKLQSMCRDMGHLERGLHRLEASRAPGPGGADGVPHIDTQAGWPEVLELVRAMQQDAAQHGARLEALFRMVAAVDRAIALVGATFQKSKVADFLMQGRVPWRRGSPGDSPEENKERVEEEGGKPKHVLSTSGLQSDAREPGEESQKADVLEGTAERLPPIRASGLGADPAQAVVSPGQGDGVPGPAQAFPGHLPLPTKVEAKAPETPSENLRTGLELAPAPGRVNVVSPSLEVAPGAGQGASSSRPDPEPLEEGTRLTPGPGPQCPGPPGLPAQARATHSGGETPPRISIHIQEMDTPGEMLMTGRGSLGPTLTTEAPAAAQPGKQGPPGTGRCLQAPGTEPGEQTPEGARELSPLQESSSPGGVKAEEEQRAGAEPGTRPSLARSDDNDHEVGALGLQQGKSPGAGNPEPEQDCAARAPVRAEAVRRMPPGAEAGSVVLDDSPAPPAPFEHRVVSVKETSISAGYEVCQHEVLGGGRFGQVHRCTEKSTGLPLAAKIIKVKSAKDREDVKNEINIMNQLSHVNLIQLYDAFESKHSCTLVMEYVDGGELFDRITDEKYHLTELDVVLFTRQICEGVHYLHQHYILHLDLKPENILCVNQTGHQIKIIDFGLARRYKPREKLKVNFGTPEFLAPEVVNYEFVSFPTDMWSVGVITYMLLSGLSPFLGETDAETMNFIVNCSWDFDADTFEGLSEEAKDFVSRLLVKEKSCRMSATQCLKHEWLNNLPAKASRSKTRLKSQLLLQKYIAQRKWKKHFYVVTAANRLRKFPTSP", "values": [
      {"measurement": "rate of decrease of NADH absorbance at 340 nm (PK/LDH-coupled assay; 90 uM RLC, 1 uM CaM, 0.3 uM CaCl2, 100 nM neukinase)", "result": "ΔOD/min/nmol nukinase=0.0152/min/nmol neukinase"}
    ]}
  ]
}
